Values quoted from earlier work, collected in patent US20250326839A1, “TREATMENT OF DISEASES RELATED TO COLONY-STIMULATING FACTOR 1 RECEPTOR DYSFUNCTION USING TREM2 AGONISTS” (Vigil Neuroscience, Inc., priority 2020, published 2025).
Where two headings read alike, the source gives them in different places. Marks after values point to notes of the source that are not given here.

Molecular target: T1, TREM2 (Homo sapiens, UniProt Q9NZC2)
T1 sequence (Q9NZC2 19-230): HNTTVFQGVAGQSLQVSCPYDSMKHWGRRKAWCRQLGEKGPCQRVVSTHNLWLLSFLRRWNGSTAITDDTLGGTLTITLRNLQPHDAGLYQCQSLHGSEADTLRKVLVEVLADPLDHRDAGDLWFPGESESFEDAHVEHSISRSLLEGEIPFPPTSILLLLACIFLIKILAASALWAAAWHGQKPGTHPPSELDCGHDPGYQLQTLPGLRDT
Conditions: cited from earlier work

[1] = 10 nM Ab concentration (values not marked *)

B1: V87: 6E7 variant: VH T30R, T58V, S63D, Q99S; VL N56W (antibody, V domains shown)
VH: EVQLVQSGAEVKKPGESLKISCKGSGYSFRSYWIAWVRQMPGKGLEWMGIIYPGDSDVRYSPDFQGQVTISADKSISTAYLQWSSLKASDTAMYFCARSRTFYYDSSDYFDYWGQGTLVTVSS
VL: DIQMTQSPSSVSASVGDRVTITCRASQGISSWLAWYQQKPGKAPKLLIYAASSLQWGVPSRFSGSGSGTDFTLTISSLQPEDFATYFCQQADSFPRTFGQGTKLEIK
In the case of B1, the “Binding Signal (fold over 6E7 parental antibody) 1st screen 110 nM or 10 nM” value [1] is listed as 3.84 fold over 6E7 parental antibod, the “Binding Signal (fold over 6E7 parental antibody) 2nd screen 2 nM” value (2nd screen) is listed as 4.86 fold over 6E7 parental antibod and the “Binding Signal (fold over 6E7 parental antibody) 2nd screen 10 nM” value (2nd screen) is listed as 3.93 fold over 6E7 parental antibod.

B2: V15: 6E7 variant: VH T30A, I50T, Q99S; VL S53W, F94Y (antibody, V domains shown)
VH: EVQLVQSGAEVKKPGESLKISCKGSGYSFASYWIAWVRQMPGKGLEWMGTIYPGDSDTRYSPSFQGQVTISADKSISTAYLQWSSLKASDTAMYFCARSRTFYYDSSDYFDYWGQGTLVTVSS
VL: DIQMTQSPSSVSASVGDRVTITCRASQGISSWLAWYQQKPGKAPKLLIYAASWLQNGVPSRFSGSGSGTDFTLTISSLQPEDFATYFCQQADSYPRTFGQGTKLEIK
In the case of B2, the “Binding Signal (fold over 6E7 parental antibody) 1st screen 110 nM or 10 nM” value [1] is listed as 5.23 fold over 6E7 parental antibod, the “Binding Signal (fold over 6E7 parental antibody) 2nd screen 2 nM” value (2nd screen) is listed as 4.72 fold over 6E7 parental antibod and the “Binding Signal (fold over 6E7 parental antibody) 2nd screen 10 nM” value (2nd screen) is listed as 4.78 fold over 6E7 parental antibod.

B3: V25: 6E7 variant: VH T30G, I50L, Q99S; VL Q55A, F94M (antibody, V domains shown)
VH: EVQLVQSGAEVKKPGESLKISCKGSGYSFGSYWIAWVRQMPGKGLEWMGLIYPGDSDTRYSPSFQGQVTISADKSISTAYLQWSSLKASDTAMYFCARSRTFYYDSSDYFDYWGQGTLVTVSS
VL: DIQMTQSPSSVSASVGDRVTITCRASQGISSWLAWYQQKPGKAPKLLIYAASSLANGVPSRFSGSGSGTDFTLTISSLQPEDFATYFCQQADSMPRTFGQGTKLEIK
For B3, the “Binding Signal (fold over 6E7 parental antibody) 1st screen 110 nM or 10 nM” value [1] is listed as 4.23 fold over 6E7 parental antibod, the “Binding Signal (fold over 6E7 parental antibody) 2nd screen 2 nM” value (2nd screen) is listed as 3.15 fold over 6E7 parental antibod and the “Binding Signal (fold over 6E7 parental antibody) 2nd screen 10 nM” value (2nd screen) is listed as 4.70 fold over 6E7 parental antibod.

B4: V27: 6E7 variant: VH S61A, Q99S; VL N56R (antibody, V domains shown)
VH: EVQLVQSGAEVKKPGESLKISCKGSGYSFTSYWIAWVRQMPGKGLEWMGIIYPGDSDTRYAPSFQGQVTISADKSISTAYLQWSSLKASDTAMYFCVRSRTFYYDSSDYFDYWGQGTLVTVSS
VL: DIQMTQSPSSVSASVGDRVTITCRASQGISSWLAWYQQKPGKAPKLLIYAASSLQRGVPSRFSGSGSGTDFTLTISSLQPEDFATYFCQQADSFPRTFGQGTKLEIK
For B4, the “Binding Signal (fold over 6E7 parental antibody) 1st screen 110 nM or 10 nM” value [1] is given as 5.50 fold over 6E7 parental antibod, the “Binding Signal (fold over 6E7 parental antibody) 2nd screen 2 nM” value (2nd screen) is given as 5.67 fold over 6E7 parental antibod and the “Binding Signal (fold over 6E7 parental antibody) 2nd screen 10 nM” value (2nd screen) is given as 5.69 fold over 6E7 parental antibod.

B5: V90: 6E7 variant: VH Y32E; VL S31R (antibody, V domains shown)
VH: EVQLVQSGAEVKKPGESLKISCKGSGYSFTSEWIAWVRQMPGKGLEWMGIIYPGDSDTRYSPSFQGQVTISADKSISTAYLQWSSLKASDTAMYFCARQRTFYYDSSDYFDYWGQGTLVTVSS
VL: DIQMTQSPSSVSASVGDRVTITCRASQGISRWLAWYQQKPGKAPKLLIYAASSLQNGVPSRFSGSGSGTDFTLTISSLQPEDFATYFCQQADSFPRTFGQGTKLEIK
For B5, the “Binding Signal (fold over 6E7 parental antibody) 1st screen 110 nM or 10 nM” value (110 nM Ab concentration (values marked *)) is listed as 0.33* fold over 6E7 parental antibod and the “Binding Signal (fold over 6E7 parental antibody) 2nd screen 100 nM” value (2nd screen, 100 nM) is listed as 0.36 fold over 6E7 parental antibod.

B6: V17: 6E7 variant: VH T30G, Q99S; VL L54R, F94S (antibody, V domains shown)
VH: EVQLVQSGAEVKKPGESLKISCKGSGYSFGSYWIAWVRQMPGKGLEWMGIIYPGDSDTRYSPSFQGQVTISADKSISTAYLQWSSLKASDTAMYFCARSRTFYYDSSDYFDYWGQGTLVTVSS
VL: DIQMTQSPSSVSASVGDRVTITCRASQGISSWLAWYQQKPGKAPKLLIYAASSRQNGVPSRFSGSGSGTDFTLTISSLQPEDFATYFCQQADSSPRTFGQGTKLEIK
In the case of B6, the “Binding Signal (fold over 6E7 parental antibody) 1st screen 110 nM or 10 nM” value [1] is listed as 5.37 fold over 6E7 parental antibod, the “Binding Signal (fold over 6E7 parental antibody) 2nd screen 2 nM” value (2nd screen) is listed as 4.22 fold over 6E7 parental antibod and the “Binding Signal (fold over 6E7 parental antibody) 2nd screen 10 nM” value (2nd screen) is listed as 5.51 fold over 6E7 parental antibod.

B7: V24: 6E7 variant: VH T58V, Q99S; VL N56K, R96H (antibody, V domains shown)
VH: EVQLVQSGAEVKKPGESLKISCKGSGYSFTSYWIAWVRQMPGKGLEWMGIIYPGDSDVRYSPSFQGQVTISADKSISTAYLQWSSLKASDTAMYFCARSRTFYYDSSDYFDYWGQGTLVTVSS
VL: DIQMTQSPSSVSASVGDRVTITCRASQGISSWLAWYQQKPGKAPKLLIYAASSLQKGVPSRFSGSGSGTDFTLTISSLQPEDFATYFCQQADSFPHTFGQGTKLEIK
In the case of B7, the “Binding Signal (fold over 6E7 parental antibody) 1st screen 110 nM or 10 nM” value [1] is given as 2.64 fold over 6E7 parental antibod, the “Binding Signal (fold over 6E7 parental antibody) 2nd screen 2 nM” value (2nd screen) is given as 1.42 fold over 6E7 parental antibod and the “Binding Signal (fold over 6E7 parental antibody) 2nd screen 10 nM” value (2nd screen) is given as 2.90 fold over 6E7 parental antibod.

B8: V88: 6E7 variant: VH T30G; VL S53R, N56R, F94S (antibody, V domains shown)
VH: EVQLVQSGAEVKKPGESLKISCKGSGYSFGSYWIAWVRQMPGKGLEWMGIIYPGDSDTRYSPSFQGQVTISADKSISTAYLQWSSLKASDTAMYFCARQRTFYYDSSDYFDYWGQGTLVTVSS
VL: DIQMTQSPSSVSASVGDRVTITCRASQGISSWLAWYQQKPGKAPKLLIYAASRLQRGVPSRFSGSGSGTDFTLTISSLQPEDFATYFCQQADSSPRTFGQGTKLEIK
For B8, the “Binding Signal (fold over 6E7 parental antibody) 1st screen 110 nM or 10 nM” value [1] is given as 4.92 fold over 6E7 parental antibod, the “Binding Signal (fold over 6E7 parental antibody) 2nd screen 2 nM” value (2nd screen) is given as 5.57 fold over 6E7 parental antibod and the “Binding Signal (fold over 6E7 parental antibody) 2nd screen 10 nM” value (2nd screen) is given as 5.30 fold over 6E7 parental antibod.

B9: V16: 6E7 variant: VH F29M, S56G, Q99S; VL S53N (antibody, V domains shown)
VH: EVQLVQSGAEVKKPGESLKISCKGSGYSMTSYWIAWVRQMPGKGLEWMGIIYPGDGDTRYSPSFQGQVTISADKSISTAYLQWSSLKASDTAMYFCARSRTFYYDSSDYFDYWGQGTLVTVSS
VL: DIQMTQSPSSVSASVGDRVTITCRASQGISSWLAWYQQKPGKAPKLLIYAASNLQNGVPSRFSGSGSGTDFTLTISSLQPEDFATYFCQQADSFPRTFGQGTKLEIK
In the case of B9, the “Binding Signal (fold over 6E7 parental antibody) 1st screen 110 nM or 10 nM” value [1] is given as 4.01 fold over 6E7 parental antibod, the “Binding Signal (fold over 6E7 parental antibody) 2nd screen 2 nM” value (2nd screen) is given as 3.57 fold over 6E7 parental antibod and the “Binding Signal (fold over 6E7 parental antibody) 2nd screen 10 nM” value (2nd screen) is given as 4.04 fold over 6E7 parental antibod.

B10: V14: 6E7 variant: VH T30G, S56Q, Q99G; VL S53R (antibody, V domains shown)
VH: EVQLVQSGAEVKKPGESLKISCKGSGYSFGSYWIAWVRQMPGKGLEWMGIIYPGDQDTRYSPSFQGQVTISADKSISTAYLQWSSLKASDTAMYFCARGRTFYYDSSDYFDYWGQGTLVTVSS
VL: DIQMTQSPSSVSASVGDRVTITCRASQGISSWLAWYQQKPGKAPKLLIYAASRLQNGVPSRFSGSGSGTDFTLTISSLQPEDFATYFCQQADSFPRTFGQGTKLEIK
For B10, the “Binding Signal (fold over 6E7 parental antibody) 1st screen 110 nM or 10 nM” value [1] is listed as 4.71 fold over 6E7 parental antibod, the “Binding Signal (fold over 6E7 parental antibody) 2nd screen 2 nM” value (2nd screen) is listed as 2.57 fold over 6E7 parental antibod and the “Binding Signal (fold over 6E7 parental antibody) 2nd screen 10 nM” value (2nd screen) is listed as 4.64 fold over 6E7 parental antibod.

B11: V26: 6E7 variant: VH A35G, I50T, F102M, Y112A; VL N56R, F94Y (antibody, V domains shown)
VH: EVQLVQSGAEVKKPGESLKISCKGSGYSFTSYWIGWVRQMPGKGLEWMGTIYPGDSDTRYSPSFQGQVTISADKSISTAYLQWSSLKASDTAMYFCARQRTMYYDSSDYFDAWGQGTLVTVSS
VL: DIQMTQSPSSVSASVGDRVTITCRASQGISSWLAWYQQKPGKAPKLLIYAASSLQRGVPSRFSGSGSGTDFTLTISSLQPEDFATYFCQQADSYPRTFGQGTKLEIK
In the case of B11, the “Binding Signal (fold over 6E7 parental antibody) 1st screen 110 nM or 10 nM” value [1] is given as 3.57 fold over 6E7 parental antibod, the “Binding Signal (fold over 6E7 parental antibody) 2nd screen 2 nM” value (2nd screen) is given as 2.83 fold over 6E7 parental antibod and the “Binding Signal (fold over 6E7 parental antibody) 2nd screen 10 nM” value (2nd screen) is given as 3.47 fold over 6E7 parental antibod.

B12: V13: 6E7 variant: VH T30G, P62A, Q99G; VL N56G, F94M (antibody, V domains shown)
VH: EVQLVQSGAEVKKPGESLKISCKGSGYSFGSYWIAWVRQMPGKGLEWMGIIYPGDSDTRYSASFQGQVTISADKSISTAYLQWSSLKASDTAMYFCARGRTFYYDSSDYFDYWGQGTLVTVSS
VL: DIQMTQSPSSVSASVGDRVTITCRASQGISSWLAWYQQKPGKAPKLLIYAASSLQGGVPSRFSGSGSGTDFTLTISSLQPEDFATYFCQQADSMPRTFGQGTKLEIK
In the case of B12, the “Binding Signal (fold over 6E7 parental antibody) 1st screen 110 nM or 10 nM” value [1] is given as 1.31 fold over 6E7 parental antibod, the “Binding Signal (fold over 6E7 parental antibody) 2nd screen 2 nM” value (2nd screen) is given as 1.15 fold over 6E7 parental antibod and the “Binding Signal (fold over 6E7 parental antibody) 2nd screen 10 nM” value (2nd screen) is given as 1.35 fold over 6E7 parental antibod.

B13: V28: 6E7 variant: VH T30Q, I50T, Y103F; VL N56S, F94L (antibody, V domains shown)
VH: EVQLVQSGAEVKKPGESLKISCKGSGYSFQSYWIAWVRQMPGKGLEWMGTIYPGDSDTRYSPSFQGQVTISADKSISTAYLQWSSLKASDTAMYFCARQRTFFYDSSDYFDYWGQGTLVTVSS
VL: DIQMTQSPSSVSASVGDRVTITCRASQGISSWLAWYQQKPGKAPKLLIYAASSLQSGVPSRFSGSGSGTDFTLTISSLQPEDFATYFCQQADSLPRTFGQGTKLEIK
For B13, the “Binding Signal (fold over 6E7 parental antibody) 1st screen 110 nM or 10 nM” value [1] is given as 3.08 fold over 6E7 parental antibod, the “Binding Signal (fold over 6E7 parental antibody) 2nd screen 2 nM” value (2nd screen) is given as 2.63 fold over 6E7 parental antibod and the “Binding Signal (fold over 6E7 parental antibody) 2nd screen 10 nM” value (2nd screen) is given as 3.61 fold over 6E7 parental antibod.
